Laboratory results taken from US10562935B2, “Stapled peptides and uses thereof” (London Health Sciences Centre Research Inc., priority 2015, dated 2020).

Assay: Circular dichroism (CD) spectroscopy of HABD2 peptides in Milli-Q water (Example 1)
Type: physicochemical
Excerpt: In addition, a large mean residue ellipticity indicates greater α-helical character. […] This was predicted to be the case, as there is a lack of contributing residues that might form a hydrophobic core, thereby helping to stabilize the secondary structure of the linear peptide. For this reason, bridges were introduced into the peptides. […] The differences in α-helicity induced by the bridges placed at different points within each peptide may be due to the differences in their primary sequences. Specifically, two amino acids (at the i and i+4 position) have to be replaced in order to form the lactam bridge. In compound 133, leucine was replaced at both the i and i+4 position; while in compound 136, glutamine was replaced at the i position and aspartic acid was replaced at i+4. Leucine and glutamine are proposed to be helix-stabilizing residues.
A larger portion of the RHAMM protein was used as the reference for α-helical character of the truncated peptides. 7 kDa RHAMM (SEQ ID NO: 1) is a mini protein that is composed of 62 amino acids, which was derived from the C-terminus of the full-length RHAMM sequence. It contains both HABDs, and is predicted to have almost complete α-helix shape, similar to that of native full-length RHAMM.
A peptide's α-helicity can be quantified using equations 1-3: fH=[([θ]obs222−[θ]c)/([θ]max222−[θ]c)] (Equation 1) [θ]c=2220+53T (Equation 2) [θ]max222=(−44000+250T)(1−k/N) (Equation 3) where fH is the ratio of the average number of helical hydrogen bonds divided by the total number of hydrogen bonds that can be found in a peptide, T is the temperature in degrees Celsius, N is the number of residues in the peptide and k is a constant of ellipticity when 100% of the structure is α-helical (3 for carboxyamidated peptides).
Milli-Q water was chosen as the solvent in which all peptides would be dissolved for CD spectroscopy, as it is a UV invisible solvent, which is a requirement of the analytical technique, and it represents RHAMM's natural environment in the body. Luo and Baldwin [18] stated that when peptides are taken out of their native protein sequence, they usually show little to no helical formation in water alone. For this reason, TFE/H2O solutions are commonly used in studies to observe the α-helix characteristics, and may improve the helical nature of the peptides observed here. However, a helix-stabilizing solvent, such as TFE, would not be as contextually relevant, as there are no solvent stabilizing effects in the body. Thus use of TFE would tend to produce skewed results and not be representative of the peptide's natural behavior.

Substance: Ac-VSKLRSQLVKRKQN-NH2 [Compound 132]
- [θ]222/[θ]208 ratio of ellipticities (0.5 mM in Milli-Q water): 0.27
- fH fraction helicity (0.5 mM in Milli-Q water, equations 1-3): 0.13
- α-helical character by CD (in words) (Milli-Q water): minimal α-helical character
- Molar ellipticity [θ]192 (λ = 192 nm, 0.5 mM in Milli-Q water): −433.48 deg cm^2 dmol^−1 residue^−1
- Molar ellipticity [θ]208 (λ = 208 nm, 0.5 mM in Milli-Q water): −4944.38 deg cm^2 dmol^−1 residue^−1
- Molar ellipticity [θ]222 (λ = 222 nm, 0.5 mM in Milli-Q water): −1339.76 deg cm^2 dmol^−1 residue^−1
